{"source": "paper doi:10.1101/444554", "about": "(bioRxiv, 2018)", "proteins": {"B1": {"name": "mouse 4-1BB ligand ectodomain (amino acids 140-309) without purification tag, co-expressed with m4-1BB for the complex structure (domain or fragment, UniProt P41274 140-309, looked up)", "chain": "TTQQGSPVFAKLLAKNQASLCNTTLNWHSQDGAGSSYLSQGLRYEEDKKELVVDSPGLYYVFLELKLSPTFTNTGHKVQGWVSLVLQAKPQVDDFDNLALTVELFPCSMENKLVDRSWSQLLLLKAGHRLSVGLRAYLHGAQDAYRDWELSYPNTTSFGLFLVKPDNPWE", "modifications": "disulfide linked dimer"}, "B2": {"name": "mouse 4-1BB ligand ectodomain (amino acids 140-309) C246S (domain or fragment, UniProt P41274 140-309, looked up)", "chain": "TTQQGSPVFAKLLAKNQASLCNTTLNWHSQDGAGSSYLSQGLRYEEDKKELVVDSPGLYYVFLELKLSPTFTNTGHKVQGWVSLVLQAKPQVDDFDNLALTVELFPSSMENKLVDRSWSQLLLLKAGHRLSVGLRAYLHGAQDAYRDWELSYPNTTSFGLFLVKPDNPWE"}, "B3": {"name": "mouse 4-1BB ligand ectodomain (amino acids 140-309) S256F (domain or fragment, UniProt P41274 140-309, looked up)", "chain": "TTQQGSPVFAKLLAKNQASLCNTTLNWHSQDGAGSSYLSQGLRYEEDKKELVVDSPGLYYVFLELKLSPTFTNTGHKVQGWVSLVLQAKPQVDDFDNLALTVELFPCSMENKLVDRFWSQLLLLKAGHRLSVGLRAYLHGAQDAYRDWELSYPNTTSFGLFLVKPDNPWE", "modifications": "inter-molecular disulfide through Cys 246"}}, "key": {"crystal structure": {"molecular_target": "the molecule itself", "test": "crystal structure"}, "SEC-MALS": {"molecular_target": "the molecule itself", "test": "SEC-MALS"}, "non-reducing SDS-PAGE": {"molecular_target": "the molecule itself", "test": "non-reducing SDS-PAGE"}}, "data": [{"protein": "B1", "values": [{"measurement": "stoichiometry N", "setting": "crystal structure", "value": 2}]}, {"protein": "B2", "values": [{"measurement": "stoichiometry N", "setting": "SEC-MALS", "value": 2}]}, {"protein": "B3", "values": [{"measurement": "stoichiometry N", "setting": "non-reducing SDS-PAGE", "value": 2}]}]}
